Here are results for one substance from paper PMC2515342.

Experiment [1] deals with hemoglobin (with bound heme) (bovine) (UniProt P01966). As to the kind of experiment: SPR.
For experiment [2], the target named is apo-hemoglobin (hemoglobin lacking heme) (bovine) (UniProt P01966). As to the kind of experiment: SPR.

As for “IsdX1 (GST removed with thrombin) (domain or fragment)”, the equilibrium dissociation constant (Kd) was found to be 0.00733 mM in experiment [1] and 9.43 mM in experiment [2].
